For orientation: Kd means the free concentration of one partner at which half of the binding sites on the other are occupied at equilibrium, for simple one-to-one binding. High values mean weaker binding, low ones tighter binding.

Drawing on patent publication US20040043378A1 (published 2004), this text covers binding result and Kd for two molecules.

In assay [1] the target is T1, P/CAF (p300/CBP-associated factor), HA-tagged, expressed in cells (human, UniProt Q92831 1-832).
T1 construct: also called HA-P/CAF
Kind of assay: interaction in cells, western blot (FLAG-Tat, HA-P/CAF). On the technique in general: In western blotting, separated proteins are transferred to a membrane and probed.

In assay [2] the target is Tat AcK50 peptide SYGR-AcK-[…] (SEQ ID NO:50) (Human Immunodeficiency Virus type 1). Briefly: NMR 2D 1H-15N HSQC titration; 'interacts strongly'.
Assay [3] has as its target T2, Tat AcK28 peptide TNCYCK-AcK-CCFH (SEQ ID NO:58) (Human Immunodeficiency Virus type 1).
T2 construct: Synthetic peptide
Briefly: NMR 2D 1H-15N HSQC titration; 'binds weakly'.

B1: Tat K50R/K51R mutant protein, FLAG-tagged, expressed in cells (other)
chain: MEPVDPRLEPWKHPGSQPKTASNNCYCKRCCLHCQVCFTKKGLGISYGRRRRRQRRRAPQDSKTHQVSLSKQPASQPRGDPTGPKESKKKVERETETDPED
notes: also called Tat-RR; Tat double mutant containing K50R/K51R
On to B1, for which the binding result in assay [1] is “no binding”.

B2: bromodomain of P/CAF (residues 719-832 of SEQ ID NO:2) (other)
chain: SKEPRDPDQLYSTLKSILQQVKSHQSAWPFMEPVKRTEAPGYYEVIRFPMDLKTMSERLKNRYYVSKKLFMADLQRVFTNCKEYNAAESEYYKCANILEKFFFSKIKEAGLIDK
notes: also called P/CAF bromodomain; the bromodomain
As to B2, the Kd in assay [2] was around 20 µM; in assay [3], below 300 µM.
